Molecular target: T1, human OX40 on cells (CHO-K1/hu OX40) (human, UniProt P43489 29-277)
T1 construct: whole, on cells; Also used here for OX40 on the HEK293/OX40/NF-kb reporter cells and on human T cells in the functional assays; also called CHO-K1/OX40; human OX40 cells
T1 sequence (looked up): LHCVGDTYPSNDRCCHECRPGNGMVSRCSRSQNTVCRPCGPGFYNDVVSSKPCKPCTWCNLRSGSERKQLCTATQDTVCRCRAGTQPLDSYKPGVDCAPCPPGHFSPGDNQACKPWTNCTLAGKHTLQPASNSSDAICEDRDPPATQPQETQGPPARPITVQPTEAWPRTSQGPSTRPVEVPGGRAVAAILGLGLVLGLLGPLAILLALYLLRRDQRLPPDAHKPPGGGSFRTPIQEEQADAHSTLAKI
Assay: FACS, CHO-K1/hu OX40 cells
Outline: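 Binding of anti-human OX40 HCAb antibodies measured by flow cytometry on CHO-K1 cells stably overexpressing human OX40. Cells incubated with 3-fold serially diluted antibodies 1 h at 4 °C in the dark, washed, then secondary staining 30 min at 4 °C; fluorescence read by FACS.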

B1: PR002067 (antibody, human IgG1, V domains shown)
VH: EVQLLESGGGLVQPGGSLRLSCAASGFTFSSYAMSWVRQAPGKGLEWVSAISGRGGSTFYADSVRGRFTISRDNSKNTLYLQMNSLRAEDTAMYYCVDGTTGTTDVDYWGQGTLVTVSS
notes: no light chain; also called anti-OX40 HCAb antibody
  EC50: 5.25 nM
  Maximum MFI: 3010 MFI
